Experimental data reported in patent US20250276077A1 (IMMUNOME, published 2025).

Tests used:
[1] = biological target: T1, mouse EphA2 on mouse tumour cells (mouse, UniProt Q03145 26-977); assay: cell-based or functional assay
[2] = biological target: T2, EphA4 (homologous receptor, screening at Integral Molecular) (human, UniProt P54764 20-986); assay: membrane protein screening on cells
T2 construct: whole, on cells

[3] = biological target: T1, mouse EphA2 on mouse tumour cells; assay: flow cytometry, CT26 cells (in vitro)
Experimental: Surface binding of the antibodies to in vitro grown cell lines was assessed by flow cytometry. Tumor cells were detached from their culture plate using Versene and counted. Cells were staining in BSA-containing buffer with primary antibody for 30 minutes at 4° C. with shaking. Following, cells were washed and stained with secondary PE-labeled antibody for 30 minutes at 4° C. with shaking. Before analysis on an Intellicyt iQue3 scanner, cells were counterstained with DAPI. MedFI values from live, single cells was expressed as fold over isotype control.

[4] = biological target: T3, EphA4_ECD (aa 23-546), Full ECD, displayed on yeast (human, UniProt P54764 23-546); assay: yeast surface display, flow cytometry titration
T3 construct: also called EphA4 full ECD
T3 sequence (P54764 23-546 limits assumed): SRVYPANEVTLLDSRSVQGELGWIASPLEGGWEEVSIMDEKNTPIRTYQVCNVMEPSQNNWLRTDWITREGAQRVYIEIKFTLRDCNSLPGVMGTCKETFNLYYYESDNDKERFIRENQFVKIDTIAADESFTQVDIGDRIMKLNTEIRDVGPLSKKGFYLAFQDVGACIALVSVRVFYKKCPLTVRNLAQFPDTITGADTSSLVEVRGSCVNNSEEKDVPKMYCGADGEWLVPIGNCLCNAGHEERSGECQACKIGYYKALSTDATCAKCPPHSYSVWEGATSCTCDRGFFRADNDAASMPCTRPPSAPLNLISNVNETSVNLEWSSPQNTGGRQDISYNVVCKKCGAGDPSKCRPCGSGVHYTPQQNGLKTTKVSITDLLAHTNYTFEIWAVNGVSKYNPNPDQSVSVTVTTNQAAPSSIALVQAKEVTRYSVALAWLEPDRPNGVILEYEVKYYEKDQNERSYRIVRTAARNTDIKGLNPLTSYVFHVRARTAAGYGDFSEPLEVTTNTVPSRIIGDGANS

FcGR1 = biological target: T4, FcGR1 (human, UniProt P12314 16-374); assay: flow cytometry, 6,000 human membrane proteins expressed on HEK293 cells
T4 construct: whole, on cells
T4 sequence (P12314 16-374): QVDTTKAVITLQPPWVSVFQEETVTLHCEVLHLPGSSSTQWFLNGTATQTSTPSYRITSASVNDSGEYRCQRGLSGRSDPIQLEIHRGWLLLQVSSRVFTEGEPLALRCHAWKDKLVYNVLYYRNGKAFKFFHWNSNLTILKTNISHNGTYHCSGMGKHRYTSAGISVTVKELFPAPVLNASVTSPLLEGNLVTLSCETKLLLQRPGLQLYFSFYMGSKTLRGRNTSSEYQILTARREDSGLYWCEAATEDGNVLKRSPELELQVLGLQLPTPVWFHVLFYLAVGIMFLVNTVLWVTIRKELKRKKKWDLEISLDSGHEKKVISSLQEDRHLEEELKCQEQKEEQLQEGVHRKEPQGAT

T1 sequence (Q03145 26-977): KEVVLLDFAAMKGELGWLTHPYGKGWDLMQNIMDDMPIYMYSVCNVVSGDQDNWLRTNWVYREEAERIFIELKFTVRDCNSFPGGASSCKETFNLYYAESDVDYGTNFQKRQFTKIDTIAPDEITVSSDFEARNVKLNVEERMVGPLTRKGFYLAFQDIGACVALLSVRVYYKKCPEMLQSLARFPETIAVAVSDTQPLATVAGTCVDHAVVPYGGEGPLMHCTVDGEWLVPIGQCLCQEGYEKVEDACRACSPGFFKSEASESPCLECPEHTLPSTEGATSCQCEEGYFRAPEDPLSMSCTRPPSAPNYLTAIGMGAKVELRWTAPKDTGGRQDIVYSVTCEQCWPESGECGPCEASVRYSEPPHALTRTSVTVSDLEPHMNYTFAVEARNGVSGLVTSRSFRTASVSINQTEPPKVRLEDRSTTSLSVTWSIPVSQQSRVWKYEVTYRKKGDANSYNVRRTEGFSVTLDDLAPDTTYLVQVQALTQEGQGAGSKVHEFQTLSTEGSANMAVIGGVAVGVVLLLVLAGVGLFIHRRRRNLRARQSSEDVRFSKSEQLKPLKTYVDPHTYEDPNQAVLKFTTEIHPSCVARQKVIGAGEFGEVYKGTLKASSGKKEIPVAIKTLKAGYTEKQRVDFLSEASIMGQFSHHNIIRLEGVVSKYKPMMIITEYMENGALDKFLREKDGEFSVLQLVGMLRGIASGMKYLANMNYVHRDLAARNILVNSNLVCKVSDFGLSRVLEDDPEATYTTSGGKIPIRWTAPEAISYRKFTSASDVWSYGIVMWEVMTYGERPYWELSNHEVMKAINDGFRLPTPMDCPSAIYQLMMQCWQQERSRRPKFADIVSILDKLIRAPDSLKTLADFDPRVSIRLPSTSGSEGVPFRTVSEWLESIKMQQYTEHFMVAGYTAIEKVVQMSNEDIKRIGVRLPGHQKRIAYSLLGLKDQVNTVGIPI
T2 sequence (P54764 20-986): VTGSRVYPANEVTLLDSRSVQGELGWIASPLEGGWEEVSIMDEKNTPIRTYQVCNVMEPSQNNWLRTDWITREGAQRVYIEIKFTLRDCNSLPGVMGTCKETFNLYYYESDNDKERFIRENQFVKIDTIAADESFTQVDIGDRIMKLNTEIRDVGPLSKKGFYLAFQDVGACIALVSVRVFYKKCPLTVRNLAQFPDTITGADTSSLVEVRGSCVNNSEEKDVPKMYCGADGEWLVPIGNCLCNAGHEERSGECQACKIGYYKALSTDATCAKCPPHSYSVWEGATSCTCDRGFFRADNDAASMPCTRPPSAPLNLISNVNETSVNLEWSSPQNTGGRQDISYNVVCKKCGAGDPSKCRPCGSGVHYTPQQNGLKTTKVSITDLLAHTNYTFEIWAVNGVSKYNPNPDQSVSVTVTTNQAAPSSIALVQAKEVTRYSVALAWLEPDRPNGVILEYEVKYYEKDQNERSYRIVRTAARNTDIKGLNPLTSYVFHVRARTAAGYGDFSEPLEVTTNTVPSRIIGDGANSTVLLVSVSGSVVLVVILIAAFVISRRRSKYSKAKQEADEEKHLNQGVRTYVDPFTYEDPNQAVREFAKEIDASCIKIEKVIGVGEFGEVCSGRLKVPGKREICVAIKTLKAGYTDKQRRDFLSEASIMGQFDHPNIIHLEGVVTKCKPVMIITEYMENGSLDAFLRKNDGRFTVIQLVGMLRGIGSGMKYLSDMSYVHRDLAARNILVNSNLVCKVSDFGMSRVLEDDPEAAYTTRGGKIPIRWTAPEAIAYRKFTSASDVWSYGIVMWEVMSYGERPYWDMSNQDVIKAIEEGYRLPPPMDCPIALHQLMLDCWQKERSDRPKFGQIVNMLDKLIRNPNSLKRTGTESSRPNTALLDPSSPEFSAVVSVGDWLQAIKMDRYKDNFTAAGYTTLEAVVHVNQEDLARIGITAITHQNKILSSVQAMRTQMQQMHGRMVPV

B1: AB-008873 (antibody)
heavy: QVQLQQWGAGLLKPSETLSLTCAVYGGSFSDYYWSWIRQPPGKGLEWIGEVNHRGSINYNNYNPSLKSRVTISVDPSKNQFSLKLTSVTAADTAVYYCAKPLRPHCTNGVCYSGDAFDIWGQGTMVTVASAKTTAPSVYPLAPVCGDTTGSSVTLGCLVKGYFPEPVTLTWNSGSLSSGVHTFPAVLQSDLYTLSSSVTVTSSTWPSQSITCNVAHPASSTKVDKKIEPRGPTIKPCPPCKCPAPNLLGGPSVFIFPPKIKDVLMISLSPIVTCVVVDVSEDDPDVQISWFVNNVEVHTAQTQTHREDYNSTLRVVSALPIQHQDWMSGKEFKCKVNNKDLPAPIERTISKPKGSVRAPQVYVLPPPEEEMTKKQVTLTCMVTDFMPEDIYVEWTNNGKTELNYKNTEPVLDSDGSYFMYSKLRVEKKNWVERNSYSCSVVHEGLHNHHTTKSFSRTPG
light: SYVLTQPPSVSVAPGQTARITCGGNNIGSKNVHWYQQKPGQAPVLVVYDDSDRPSGIPEQFSGSNSGNTATLTISRVEAGDEADYYCQVWDSSSDHLVFGGGTKLTVLGQPKSSPSVTLFPPSSEELETNKATLVCTITDFYPGVVTVDWKVDGTPVTQGMETTQPSKQSNNKYMASSYLTLTARAWERHSSYSCQVTHEGHTVEKSLSRADCS
[1]
  ADCC EC50 (nM), EMT6 cells: > 100 nM
[2]
  binding result: no binding
[3]
  fold (MedFI over isotype control): 16 fold
[4]
  binding result: no binding (tested: about 300 nM)
FcGR1
  binding result: binds
